From article PMC5714209 (Nucleic Acids Research, 2017)

Target: the molecule itself
Test: SEC

B1: full-length APOBEC3B (enzyme)
chain: not shown
stoichiometry N: 4
